Patent US20150246959A1 (published 2015)
One block for each binder: values may come before it.

Tests used:
[1] = biological target: T1, MAGE-A3 peptide on HLA-DPB1*04:01 (human); assay: cytokine release
T1 peptide: KKLLTQHFVQENYLEY

[2] = biological target: T2, MAGE-A12 peptide on HLA-DPB1*04:01 (human); assay: cytokine release
T2 peptide: KKLLTQDLVQENYLEY

[3] = biological target: T3, MAGE-A1 peptide on HLA-DPB1*04:01 (human); assay: cytokine release
T3 peptide: KKLLTQDLVQEKYLEY

[4] = biological target: T4, MAGE-A6 peptide on HLA-DPB1*04:01 (human); assay: cytokine release
T4 peptide: QYFVQENYLEY

[5] = biological target: T5, MAGE-A2/A12 peptide on HLA-DPB1*04:01 (human); assay: cytokine release
T5 peptide: QDLVQENYLEY

[6] = biological target: T6, MAGE-A4/A9 peptide on HLA-DPB1*04:01 (human); assay: cytokine release
T6 peptide: QDWVQENYLEY

[7] = biological target: T7, MAGE-A8 peptide on HLA-DPB1*04:01 (human); assay: cytokine release
T7 peptide: QEWVQENYLEY

[8] = biological target: T8, MAGE-B2 peptide on HLA-DPB1*04:01 (human); assay: cytokine release
T8 peptide: KDLVQEKYLEY

[9] = biological target: T9, MAGE-B10 peptide on HLA-DPB1*04:01 (human); assay: cytokine release
T9 peptide: KDLVKENYLEY

[10] = biological target: T10, MAGE-B16 peptide on HLA-DPB1*04:01 (human); assay: cytokine release
T10 peptide: KDFVKEKYLEY

[11] = biological target: T11, MAGE-C1 peptide on HLA-DPB1*04:01 (human); assay: cytokine release
T11 peptide: KVWVQEHYLEY

[12] = biological target: T12, MAGE-A3 peptide on HLA-DPB1*04:01 (human); assay: cytokine release
T12 peptide: QHFVQENYLEY

[13] = biological target: T13, MAGE-L2 peptide on HLA-DPB1*04:01 (human); assay: cytokine release
T13 peptide: KKLITEVFVRQKYLEY

[14] = biological target: T14, MAGE-G1 peptide on HLA-DPB1*04:01 (human); assay: cytokine release
T14 peptide: KKLITEDFVRQRYLEY

[15] = biological target: T15, Necdin peptide on HLA-DPB1*04:01 (human); assay: cytokine release
T15 peptide: EEFVQMNYLKY

[16] = biological target: T16, MAGE-A3 peptide on HLA-DPB1*04:02 (human); assay: cytokine release
T16 peptide: QHFVQENYLEY

[17] = biological target: T17, MAGE-A3 peptide on HLA-DPB1*04:01 (human); assay: cytokine release
T17 peptide: KKLLTQHFVQEN

[18] = biological target: T18, MAGE-A3 peptide on HLA-DPB1*04:01 (human); assay: cytokine release
T18 peptide: KKLLTQHFVQE

[19] = biological target: T19, MAGE-A3 peptide on HLA-DPB1*04:01 (human); assay: cytokine release
T19 peptide: LLTQHFVQENYLEY

[20] = biological target: T20, MAGE-A3 peptide on HLA-DPB1*04:01 (human); assay: cytokine release
T20 peptide: LTQHFVQENYLEY

[21] = biological target: T21, MAGE-A3 peptide on HLA-DPB1*04:01 (human); assay: cytokine release
T21 peptide: TQHFVQENYLEY

[22] = biological target: T1, MAGE-A3 peptide on HLA-DPB1*04:01; assay: multimer staining

- binding result [1]: recognises
- binding result [2]: no recognition
- binding result [3]: no recognition
B1: R12C9 TCR (TCR, V domains shown)
Valpha: AQTVTQSQPEMSVQEAETVTLSCTYDTSESDYYLFWYKQPPSRQMILVIRQEAYKQQNATENRFSVNFQKAAKSFSLKISDSQLGDAAMYFCAYTVPSNAGGTSYGKLTFGQGTILTVHP
Vbeta: EPEVTQTPSHQVTQMGQEVILRCVPISNHLYFYWYRQILGQKVEFLVSFYNNEISEKSEIFDDQFSVERPDGSNFTLKIRSTKLEDSAMYFCASSERGQGYGYTFGSGTRLTVV

- binding result [4]: recognises
- binding result [5]: no recognition
- binding result [6]: no recognition
- binding result [7]: no recognition
- binding result [8]: no recognition
- binding result [9]: no recognition
- binding result [10]: no recognition
- binding result [11]: no recognition
- binding result [12]: recognises
- binding result [13]: no recognition
- binding result [14]: no recognition
- binding result [15]: no recognition
- binding result [2]: no recognition
- binding result [3]: no recognition
- binding result [16]: recognises
- binding result [17]: no recognition
- binding result [18]: no recognition
- binding result [19]: recognises
- binding result [20]: recognises
- binding result [21]: recognises
- binding result [22]: recognises
B2: 6F9 TCR (TCR, V domains shown)
Valpha: AQTVTQSQPEMSVQEAETVTLSCTYDTSESDYYLFWYKQPPSRQMILVIRQEAYKQQNATENRFSVNFQKAAKSFSLKISDSQLGDAAMYFCALRSSGTYKYIFGTGTRLKVLA
Vbeta: GAGVSQSPSNKVTEKGKDVELRCDPISGHTALYWYRQSLGQGLEFLIYFQGNSAPDKSGLPSDRFSAERTGGSVSTLTIQRTQQEDSAVYLCASIRTGPFFSGNTIYFGEGSWLTVV
